Laboratory results: patent US20260159579A1 (Pfizer, published 2026)
Substitutions are numbered along the chain they refer to. Where “and” joins values, the source holds several entries; their conditions need not be identical. Identical values can stand only once. Like-named read-outs stand apart in the source and are kept apart here.

Assays:
[1] = target: T1, Mouse Fc-human GDF15 (Mu IgG1Fc_Fxa_Hu GDF15) (human); experiment: SPR BIAcore T200, 37C; Fc-GDF15 captured, IgG as analyte
T1 construct: Whole entry is the fusion: mouse IgG1 Fc, FXa site and linker, mature human GDF15; described as dimeric; also called Murine dimeric IgG1 Fc-human GDF-15 with FXa cleavage site; control human GDF15
T1 chain: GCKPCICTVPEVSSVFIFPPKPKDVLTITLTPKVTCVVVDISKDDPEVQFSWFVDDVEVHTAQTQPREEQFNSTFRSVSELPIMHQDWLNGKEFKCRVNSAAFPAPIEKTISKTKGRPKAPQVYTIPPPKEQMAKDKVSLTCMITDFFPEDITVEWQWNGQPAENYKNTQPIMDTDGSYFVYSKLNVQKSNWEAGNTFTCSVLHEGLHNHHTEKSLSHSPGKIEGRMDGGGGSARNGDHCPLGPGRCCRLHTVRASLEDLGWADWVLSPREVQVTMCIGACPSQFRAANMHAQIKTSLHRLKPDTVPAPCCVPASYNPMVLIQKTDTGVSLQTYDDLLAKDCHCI
Description: (§1) Mouse Fc-human GDF15 (Mu IgG1Fc_Fxa_Hu GDF15; SEQ ID NO:2), Mouse Fc-mouse GDF15 (Mu IgG1Fc_Fxa_Mu GDF15; SEQ ID NO:5) and Mouse Fc-cynomolgus monkey GDF15 (Mu IgG1Fc_Fxa_Cyno GDF15; SEQ ID NO:4) were captured onto three different flow cells of a CM4 sensorchip (catalogue number BR100534, GE Healthcare) surface using the Mouse Antibody Capture Kit (BR100838, GE Healthcare) according to the manufacturer's protocol. The running and sample bufferwas 10 mM HEPES pH 7.4, 0.15M NaCl, 3 mM EDTA, 0.05% P-20 (HBS-EP+). The final capture levels of Mu IgG1Fc_Fxa_Hu GDF15, Mu IgG1Fc_Fxa_Mu GDF15 and Mu IgG1Fc_Fxa_Cyno GDF15 were 40 resonance units (RU), 32 RU and 25 RU respectively. Flow cell 1 was used as a reference flow cell. […] The dissociation was monitored for 2.8 hours and the surface was regenerated with 10 mM Glycine pH 1.7. Binding affinities and rate constants were determined for murine and cynomolgus monkey GDF15 by fitting the resulting sensorgram data to a 1:1 Langmuir model in BIAcore T200 Evaluation software version 2.0 (GE Healthcare).
(§2) Additionally, the binding of clone GDF15_001 to cynomolgus monkey and mouse GDF15 was measured using above mentioned BIAcore assay (Table 7).

[2] = target: T2, Mouse Fc-cynomolgus monkey GDF15 (Mu IgG1Fc_Fxa_Cyno GDF15) (cynomolgus monkey); experiment: as above
T2 construct: Whole entry is the fusion: mouse IgG1 Fc, FXa site and linker, cynomolgus GDF15; described as dimeric; also called Murine dimeric IgG1 Fc-cyno GDF-15 with FXa cleavage site
T2 chain: T1 chain with H239R, R254H, A287E, T296M, S297N, I345V
Description: as §1, §2

[3] = target: T1, Mouse Fc-human GDF15 (Mu IgG1Fc_Fxa_Hu …); experiment: SPR BIAcore T200, 37C; Fc-GDF15 captured, IgG as analyte; average of runs; apparent KD
[4] = target: Mouse Fc-mouse GDF15 (Mu IgG1Fc_Fxa_Mu GDF15) (mouse); experiment: SPR BIAcore T200, 37C; Fc-GDF15 captured, IgG as analyte
[5] = target: T1, Mouse Fc-human GDF15 (Mu IgG1Fc_Fxa_Hu …); experiment: as above
Description: as §1, §2

[6] = target: T1, Mouse Fc-human GDF15 (Mu IgG1Fc_Fxa_Hu …); experiment: SPR BIAcore T200, 37C; Fc-GDF15 captured, IgG as analyte; average of runs
Description: as §1, §2

[7] = target: T2, Mouse Fc-cynomolgus monkey GDF15 (Mu …); experiment: as above
Description: as §1, §2

[8] = target: T1, Mouse Fc-human GDF15 (Mu IgG1Fc_Fxa_Hu …); experiment: SPR BIAcore T200, 37C; Fc-GDF15 captured, IgG as analyte; apparent KD
[9] = target: Mouse Fc-mouse GDF15 (Mu IgG1Fc_Fxa_Mu GDF15) (mouse); experiment: SPR BIAcore T200, 37C; Fc-GDF15 captured, IgG as analyte; average of runs
[10] = target: T1, Mouse Fc-human GDF15 (Mu IgG1Fc_Fxa_Hu …); experiment: as above
Description: as §1, §2

T½ min [1]: 20.9 h and 30.8 h and 40.3 h | koff [1]: 9.22e-06 s⁻¹ and 6.25e-06 s⁻¹ and 4.78e-06 s⁻¹ | kon [1]: 1.69e+06 M⁻¹ s⁻¹ and 2.03e+06 M⁻¹ s⁻¹ and 2.18e+06 M⁻¹ s⁻¹ | Kd [2]: 0.00886 nM and 0.00671 nM and 0.00926 nM | T½ min [2]: 14.8 h and 15.5 h and 18.7 h | koff [2]: 1.3e-05 s⁻¹ and 1.24e-05 s⁻¹ and 1.03e-05 s⁻¹ | kon [2]: 1.47e+06 M⁻¹ s⁻¹ and 1.85e+06 M⁻¹ s⁻¹ and 1.12e+06 M⁻¹ s⁻¹ | Kd [3]: < 0.01 nM | Kd [4]: 0.114 nM and 0.175 nM and 0.138 nM | T½ min [4]: 0.66 h and 0.447 h and 0.555 h | koff [4]: 0.000292 s⁻¹ and 0.000431 s⁻¹ and 0.000347 s⁻¹ | kon [4]: 2.6e+06 M⁻¹ s⁻¹ and 2.5e+06 M⁻¹ s⁻¹ (2×) | Kd [5]: < 0.01 nM | T½ min [5]: 40.3 h and 20.9 h and 30.8 h | koff [5]: 4.78e-06 s⁻¹ and 9.22e-06 s⁻¹ and 6.25e-06 s⁻¹ | kon [5]: 1.69e+06 M⁻¹ s⁻¹ and 2.18e+06 M⁻¹ s⁻¹ and 2.03e+06 M⁻¹ s⁻¹ | koff [6]: 6.75e-06 s⁻¹ | kon [6]: 1.97e+06 M⁻¹ s⁻¹ | Kd [7]: 0.00828 nM | koff [7]: 1.19e-05 s⁻¹ | kon [7]: 1.48e+06 M⁻¹ s⁻¹ | Kd [8]: < 0.01 nM | Kd [9]: 0.142 nM | koff [9]: 0.000356 s⁻¹ | kon [9]: 2.51e+06 M⁻¹ s⁻¹ | Kd [10]: < 0.01 nM | koff [10]: 6.75e-06 s⁻¹ | kon [10]: 1.97e+06 M⁻¹ s⁻¹
B1: GDF15_001 (antibody, human IgG1, kappa, V domains shown)
VH: QVQLVQSGAEVKKPGSSVKVSCKASGYTFSSYNIDWVRQAPGQGLEWMGGINPIFGTAFYNQKFQGRVTITADESTSTAYMELSSLRSEDTAVYYCAREAITTVGAMDHWGQGTLVTVSS
VL: EIVLTQSPATLSLSPGERATLSCRTSQSVHNYLAWYQQKPGQAPRLLIYDASTRADGIPARFSGSGSGTDFTLTISSLEPEDFAVYYCQQFWSWPWTFGQGTKVEIKR
notes: Tested in bivalent format; IgG1 heavy chain, kappa light chain; also called ponsegromab; PF-06946860
